B1: Insulin receptor substrate 1 (Rattus norvegicus (Rat)), P35570 (parent)
chain: MASPPDTDGFSDVRKVGYLRKPKSMHKRFFVLRAASEAGGPARLEYYENEKKWRHKSSAPKRSIPLESCFNINKRADSKNKHLVALYTRDEHFAIAADSEAEQDSWYQALLQLHNRAKAHHDGAGGGCGGSCSGSSGVGEAGEDLSYDTGPGPAFKEVWQVILKPKGLGQTKNLIGIYRLCLTSKTISFVKLNSEAAAVVLQLMNIRRCGHSENFFFIEVGRSAVTGPGEFWMQVDDSVVAQNMHETILEAMRAMSDEFRPRTKSQSSSSCSNPISVPLRRHHLNNPPPSQVGLTRRSRTESITATSPASMVGGKPGSFRVRASSDGEGTMSRPASVDGSPVSPSTNRTHAHRHRGSSRLHPPLNHSRSIPMPSSRCSPSATSPVSLSSSSTSGHGSTSDCLFPRRSSASVSGSPSDGGFISSDEYGSSPCDFRSSFRSVTPDSLGHTPPARGEEELSNYICMGGKGASTLTAPNGHYILSRGGNGHRYIPGATMGTSPALTGDEAAGAADLDNRFRKRTHSAGTSPTISHQKTPSQSSVVSIEEYTEMMPAAYPPGGGSGGRLPGYRHSAFVPTHSYPEEGLEMHHLERRGGHHRPDSSNLHTDDGYMPMSPGVAPVPSNRKGNGDYMPMSPKSVSAPQQIINPIRRHPQRVDPNGYMMMSPSGSCSPDIGGGSCSSSSISAAPSGSSYGKPWTNGVGGHHTHALPHAKPPVESGGGKLLPCTGDYMNMSPVGDSNTSSPSECYYGPEDPQHKPVLSYYSLPRSFKHTQRPGEPEEGARHQHLRLSSSSGRLRYTATAEDSSSSTSSDSLGGGYCGARPESSVTHPHHHALQPHLPRKVDTAAQTNSRLARPTRLSLGDPKASTLPRVREQQQQQQQQQQSSLHPPEPKSPGEYVNIEFGSGQPGYLAGPATSRSSPSVRCLPQLHPAPREETGSEEYMNMDLGPGRRATWQESGGVELGRVGPAPPGAASICRPTRSVPNSRGDYMTMQIGCPRQSYVDTSPVAPVSYADMRTGIAAEKVSLPRTTGAAPPPSSTASASASVTPQGAAEQAAHSSLLGGPQGPGGMSAFTRVNLSPNHNQSAKVIRADTQGCRRRHSSETFSAPTRAANTVSFGAGAAGGGSGGGSEDVKRHSSASFENVWLRPGDLGGASKESAPGCGAAGGLEKSLNYIDLDLVKDVKQHPQDCPSQQQSLPPPPPHQPLGSNEGSSPRRSSEDLSTYASINFQKQPEDRQ

Variants of: B1
Settings: with phip_mouse Phip

| Variant | effect of a mutation on the interaction |
| --- | --- |
| W106A | disrupting interaction |

Reference: IntAct's records for PubMed 11018022
